According to US9873883B2, “Glyphosate resistant plants and associated methods” (Dow AgroSciences LLC, priority 2012, dated 2018):

B1: Brassica napus (canola) EPSP synthase DGT-3 (GENBANK P17688) variant DGT-3 v6 (G→A) (Brassica napus; G173A) (protein)
chain: KASEIVLQPIREISGLIKLPGSKSLSNRILLLAALSEGTTVVDNLLNSDDINYMLDALKKLGLNVERDSVNNRAVVEGCGGIFPASLDSKSDIELYLGNAATAMRPLTAAVTAAGGNASYVLDGVPRMRERPIGDLVVGLKQLGADVECTLGTNCPPVRVNANGGLPGGKVKLSGSISSQYLTALLMAAPLALGDVEIEIIDKLISVPYVEMTLKLMERFGVSAEHSDSWDRFFVKGGQKYKSPGNAYVEGDASSASYFLAGAAITGETVTVEGCGTTSLQGDVKFAEVLEKMGCKVSWTENSVTVTGPSRDAFGMRHLRAVDVNMNKMPDVAMTLAVVALFADGPTTIRDVASWRVKETERMIAICTELRKLGATVEEGSDYCVITPPAKVKPAEIDTYDDHRMAMAFSLAACADVPVTIKDPGCTRKTFPDYFQVLESITKH
notes: made in house; host or cells: E. coli Rosetta2 (DE3)
B2: Brassica napus (canola) EPSP synthase DGT-3 (GENBANK P17688) variant DGT-3 v8 (T→I, P→S; TIPS) (Brassica napus; P178S/T174I) (protein)
chain: KASEIVLQPIREISGLIKLPGSKSLSNRILLLAALSEGTTVVDNLLNSDDINYMLDALKKLGLNVERDSVNNRAVVEGCGGIFPASLDSKSDIELYLGNAGIAMRSLTAAVTAAGGNASYVLDGVPRMRERPIGDLVVGLKQLGADVECTLGTNCPPVRVNANGGLPGGKVKLSGSISSQYLTALLMAAPLALGDVEIEIIDKLISVPYVEMTLKLMERFGVSAEHSDSWDRFFVKGGQKYKSPGNAYVEGDASSASYFLAGAAITGETVTVEGCGTTSLQGDVKFAEVLEKMGCKVSWTENSVTVTGPSRDAFGMRHLRAVDVNMNKMPDVAMTLAVVALFADGPTTIRDVASWRVKETERMIAICTELRKLGATVEEGSDYCVITPPAKVKPAEIDTYDDHRMAMAFSLAACADVPVTIKDPGCTRKTFPDYFQVLESITKH
notes: as for B1
B3: Brassica napus (canola) EPSP synthase DGT-3 (GENBANK P17688) variant DGT-3 v7 (G→A, P→S; GAPS) (Brassica napus; G173A/P178S) (protein)
chain: KASEIVLQPIREISGLIKLPGSKSLSNRILLLAALSEGTTVVDNLLNSDDINYMLDALKKLGLNVERDSVNNRAVVEGCGGIFPASLDSKSDIELYLGNAATAMRSLTAAVTAAGGNASYVLDGVPRMRERPIGDLVVGLKQLGADVECTLGTNCPPVRVNANGGLPGGKVKLSGSISSQYLTALLMAAPLALGDVEIEIIDKLISVPYVEMTLKLMERFGVSAEHSDSWDRFFVKGGQKYKSPGNAYVEGDASSASYFLAGAAITGETVTVEGCGTTSLQGDVKFAEVLEKMGCKVSWTENSVTVTGPSRDAFGMRHLRAVDVNMNKMPDVAMTLAVVALFADGPTTIRDVASWRVKETERMIAICTELRKLGATVEEGSDYCVITPPAKVKPAEIDTYDDHRMAMAFSLAACADVPVTIKDPGCTRKTFPDYFQVLESITKH
notes: as for B1
B4: Glycine max (soybean) EPSP synthase DGT-1 variant DGT-1 v6 (G→A) (Glycine max; G182A) (protein)
chain: MASVAAAEKPSTSPEIVLEPIKDFSGTITLPGSKSLSNRILLLAALSEGTTVVDNLLYSEDIHYMLGALRTLGLRVEDDKTTKQAIVEGCGGLFPTSKESKDEINLFLGNAATAMRPLTAAVVAAGGNASYVLDGVPRMRERPIGDLVAGLKQLGADVDCFLGTNCPPVRVNGKGGLPGGKVKLSGSVSSQYLTALLMAAPLALGDVEIEIVDKLISVPYVEMTLKLMERFGVSVEHSGNWDRFLVHGGQKYKSPGNAFVEGDASSASYLLAGAAITGGTITVNGCGTSSLQGDVKFAEVLEKMGAKVTWSENSVTVSGPPRDFSGRKVLRGIDVNMNKMPDVAMTLAVVALFANGPTAIRDVASWRVKETERMIAICTELRKLGATVEEGPDYCVITPPEKLNVTAIDTYDDHRMAMAFSLAACGDVPVTIKDPGCTRKTFPDYFEVLERLTKH
B5: Glycine max (soybean) EPSP synthase DGT-1 variant DGT-1 v8 (T→I, P→S; TIPS) (Glycine max; P187S/T183I) (protein)
chain: MASVAAAEKPSTSPEIVLEPIKDFSGTITLPGSKSLSNRILLLAALSEGTTVVDNLLYSEDIHYMLGALRTLGLRVEDDKTTKQAIVEGCGGLFPTSKESKDEINLFLGNAGIAMRSLTAAVVAAGGNASYVLDGVPRMRERPIGDLVAGLKQLGADVDCFLGTNCPPVRVNGKGGLPGGKVKLSGSVSSQYLTALLMAAPLALGDVEIEIVDKLISVPYVEMTLKLMERFGVSVEHSGNWDRFLVHGGQKYKSPGNAFVEGDASSASYLLAGAAITGGTITVNGCGTSSLQGDVKFAEVLEKMGAKVTWSENSVTVSGPPRDFSGRKVLRGIDVNMNKMPDVAMTLAVVALFANGPTAIRDVASWRVKETERMIAICTELRKLGATVEEGPDYCVITPPEKLNVTAIDTYDDHRMAMAFSLAACGDVPVTIKDPGCTRKTFPDYFEVLERLTKH
B6: Glycine max (soybean) EPSP synthase DGT-1 variant DGT-1 v7 (G→A, P→S; GAPS) (Glycine max; G182A/P187S) (protein)
chain: MASVAAAEKPSTSPEIVLEPIKDFSGTITLPGSKSLSNRILLLAALSEGTTVVDNLLYSEDIHYMLGALRTLGLRVEDDKTTKQAIVEGCGGLFPTSKESKDEINLFLGNAATAMRSLTAAVVAAGGNASYVLDGVPRMRERPIGDLVAGLKQLGADVDCFLGTNCPPVRVNGKGGLPGGKVKLSGSVSSQYLTALLMAAPLALGDVEIEIVDKLISVPYVEMTLKLMERFGVSVEHSGNWDRFLVHGGQKYKSPGNAFVEGDASSASYLLAGAAITGGTITVNGCGTSSLQGDVKFAEVLEKMGAKVTWSENSVTVSGPPRDFSGRKVLRGIDVNMNKMPDVAMTLAVVALFANGPTAIRDVASWRVKETERMIAICTELRKLGATVEEGPDYCVITPPEKLNVTAIDTYDDHRMAMAFSLAACGDVPVTIKDPGCTRKTFPDYFEVLERLTKH

Tested on: C=C(OP(=O)(O)O)C(=O)O
Assay: purified protein, by the assay type
Settings: other: pH 7.5, 1 mM S3P

Molecule | Km | kcat/Km
Mariprofundus ferrooxydans EPSP synthase DGT-14 v1, native wild type (GENBANK ZP_01452683; SEQ ID NO:17) (Mariprofundus ferrooxydans PV-1) | 208.6 µM | –
bacterial EPSP synthase DGT-11 v6, native (GENBANK YP_989551.1), SEQ ID NO:5 (Bartonella bacilliformis INS) | 1576.6 µM | 50 M⁻¹ s⁻¹
bacterial EPSP synthase DGT-18 (GENBANK NP_928909.1) variant DGT-18 v6 (G→A at residue 96), SEQ ID NO:9 (Photorhabdus laumondii subsp. laumondii TTO1; G96A) | 375.9 µM | 40000 M⁻¹ s⁻¹
bacterial EPSP synthase DGT-29 (GENBANK YP_322772.1) variant DGT-29 v6 (G→A at residue 96), SEQ ID NO:11 (Trichormus variabilis ATCC 29413; G96A) | 1502.2 µM | 4000 M⁻¹ s⁻¹
bacterial EPSP synthase DGT-30 (GENBANK ZP_02156189.1) variant DGT-30 v6 (G→A at residue 96), SEQ ID NO:13 (Shewanella benthica KT99; G96A) | 414.9 µM | 30000 M⁻¹ s⁻¹

Substrate: C=C(OP(=O)(O)O)C(=O)O
Assay: In vitro kinetic assay (inorganic phosphate production, malachite green)
Format: biochemical, Brassica napus
Settings: other: pH 7.5, 1 mM S3P
Excerpt: (§1) The following Class I enzymes: DGT-1 from Glycine max, DGT-3 from Brassica napus (GENBANK ACC NO: P17688), and DGT-7 from Triticum aestivum (GENBANK ACC NO: EU977181) were used as a comparison. The Class I EPSP synthase enzymes and mutant variants thereof were synthesized and evaluated. A mutation introduced into the plant EPSP synthase enzymes consisted of the Glycine to Alanine mutation made within the EPSP synthase enzyme at a similar location as that of the G96A mutation from the E. coli version of the enzyme. In addition, Threonine to Isoleucine and Proline to Serine mutations were introduced within these Class I EPSP synthase enzymes at analogous positions as that of amino acid 97 (T to I) and amino acid 101 (P to S) in the EPSP synthase of E. coli as described in Funke et al., (2009).
(§2) The location of the amino acid residue which was mutated from glycine to alanine is indicated by the first asterisk. The location of the amino acid residue which was mutated from threonine to isoleucine is indicated by the second asterisk. The location of the third amino acid residue which was mutated from proline to serine is indicated by the third asterisk. These mutations were introduced into different versions of DGT-1, DGT-3, and DGT-7. The different versions of the genes which contain the mutations are described in more detail below.
(§3) Additional constructs containing the dgt-1, dgt-3 and dgt-7 were synthesized. These constructs were used for in vitro testing of the dgt-1 v5, dgt-1 v6, dgt-1 v7, dgt-1 v8, dgt-3 v6, dgt-3 v7, dgt-3 v8, dgt-7 v5, dgt-7 v6, dgt-7 v7, and dgt-7 v8 gene sequences were outsourced to GeneArt for synthesis and cloning. The synthesized genes were cloned into the pET28 expression vector. The resulting constructions were labeled as pDAB102028 containing dgt-1 v5, pDAB102029 containing dgt-1 v6, pDAB102032 containing dgt-1 v7, pDAB102034 containing dgt-1 v8, pDAB100429 containing dgt-3 v6, pDAB100442 containing dgt-3 v7, pDAB100430 containing dgt-3 v8, pDAB102036 containing dgt-7 v5, pDAB102038 containing dgt-7 v6, pDAB102040 containing dgt-7 v7, and pDAB102042 containing dgt-7 v8.
(§4) Recombinant DGT proteins were overexpressed in Rosetta2™ (DE3) cells (Novagen, Madison, Wis.) from the constructs described above. A single colony was used to inoculate 50 mL starter cultures of LB containing chloramphenicol (25 μg/mL) and kanamycin (50 μg/mL) which were cultivated overnight at 37° C. The overnight cultures were used to inoculate 1 L of LB containing chloramphenicol (25 μg/mL) and kanamycin (50 μg/mL). The cultures were grown at 37° C. to an O.D.600=0.6 then placed in an ice water bath for 10 minutes. Expression of the target proteins was achieved by addition of IPTG to a final concentration of 500 μM. Induction was allowed to proceed overnight at 20° C. followed by harvesting via centrifugation at 8,000 rpm for 20 minutes. The cell pellets were stored at −80° C. until required for purification. All purification steps were carried out at 4° C.
(§5) Cell pellets from 1 L cultures were resuspended in 20-30 mL Buffer A (50 mM HEPES pH 7.5, 150 mM KCl, 2 mM DTT, 1 mM EDTA, 20 mM imidazole, and 5% glycerol). COMPLETE™ protease inhibitor cocktail (1 tablet/50 mL, Roche, Indianapolis, Ind.) and lysozyme (1 mg/mL, Sigma-Aldrich, St. Louis, Mo.) were then added and the suspension was stirred for 20 minutes. Cell lysis was performed using a Branson Sonifier 250 (3×60 second bursts) followed by removal of the cell debris by centrifugation at 16,000 rpm for 45 minutes. […]

Molecule | Km | kcat/Km
B1 | 1073.4 µM | 13900 M⁻¹ s⁻¹
B2 | 196.8 µM | –
B3 | 2728.3 µM | 2280 M⁻¹ s⁻¹

Substrate: C=C(OP(=O)(O)O)C(=O)O
Assay: as above
Format: biochemical, Glycine max
Settings: other: pH 7.5, 1 mM S3P
Remark: another data set of the same source
Excerpt: as §1, §2, §3, §4, §5

Molecule | Km | kcat/Km
B4 | 608.2 µM | 13400 M⁻¹ s⁻¹
B5 | 151.4 µM | –
B6 | 1291.2 µM | 6670 M⁻¹ s⁻¹
